From article PMC12259648 (Frontiers in Immunology, 2025)

T1: Phl p 5.0101 (timothy grass)
T1 construct: Phl p 5.0101, major group 5 pollen allergen of timothy grass; The SPR methods say only 'Phl p 5 antigen'; also called major timothy grass pollen allergen Phl p 5; group 5 allergen; source: bought: Biomay, Vienna, Austria
T1 chain: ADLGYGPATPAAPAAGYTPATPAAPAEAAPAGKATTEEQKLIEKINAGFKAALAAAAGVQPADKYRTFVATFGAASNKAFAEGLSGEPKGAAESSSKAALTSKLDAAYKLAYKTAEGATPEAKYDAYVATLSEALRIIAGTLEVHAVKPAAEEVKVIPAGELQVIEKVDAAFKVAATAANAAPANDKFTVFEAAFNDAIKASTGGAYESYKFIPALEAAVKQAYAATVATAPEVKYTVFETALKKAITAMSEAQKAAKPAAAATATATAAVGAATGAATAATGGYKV


Target: T1, Phl p 5.0101
Test: SPR; Biacore 1K+; purified IgG captured (about 100 RU) on anti-human IgG (Fc) on a CM5 chip; Phl p 5 injected at 1.875-60 nM, 25 uL/min, 120 s, 1360 s dissociation; PBS with 0.02% Tween 20; 1:1 Langmuir model
Settings: both partners purified

Row | Kd [nM] | koff [s⁻¹] | kon [M⁻¹ s⁻¹] | Binder
1 | 19.6 | 0.00262 | 130000 | 212579 E38HS, G62HS (antibody, V domains shown, numbers count on: IMGT numbering; as the VL of m2; IgG1, kappa; also called E38HS G62HS substituted antibody; source: Expi293F, transfected, purified (Protein A magnetic beads)) VH: EVQLVESGGGLVQPGGSLRLSCAASGFTFSSYSMTWVRQAPGKGLEWISYISSSSSTIYYADSVKGRFTISRDNAKNSLYLQMNSLRAEDTAVYYCARDLRWGVMDNYYYHGMDVWGQGTTVTVSS VL: EIVLTQSPGTLSLSPGERATLSCRASQSISSSYLTWYQQKPGQAPRLLIYGASSRATGIPDRFSGSGSGTDFTLTISRLEPEDFAVYYCQQYVSSLITFGQGTRLEIK
2 | 8.5 | 0.00051 | 60000 | inferred unmutated common ancestor (UCA) of antibody 212579 (antibody, V domains shown, equals the inferred UCA heavy chain variable domain (GenBank PV255645, PV255646 for the two chains); numbers count on: IMGT numbering; equals the inferred UCA light chain variable domain (GenBank PV255645, PV255646 for the two chains); IgG1, kappa; also called inferred UCA; source: Expi293F, transfected, purified (Protein A magnetic beads)) VH: EVQLVESGGGLVQPGGSLRLSCAASGFTFSSYEMNWVRQAPGKGLEWVSYISSSGSTIYYADSVKGRFTISRDNAKNSLYLQMNSLRAEDTAVYYCARDLRWGVMDNYYYYGMDVWGQGTTVTVSS VL: not shown
